For six variants, ratio to parent (fold difference) results are on record in publication PMC12098869, “An mRNA-display derived cyclic peptide scaffold reveals the substrate binding interactions of an N-terminal cysteine oxidase” (Nature Communications, 2025).

B1: 2-aminoethanethiol dioxygenase (ADO), full-length human, N-terminally His-tagged and biotinylated (pQE80L-Navi-ADO) [modified: biotin (biotinylated during expression, 0.2 mM biotin added); biotin (biotinylated during … (parent)
chain 1: CKGLAALPHSCLER
chain 2: MPRDNMASLIQRIARQACLTFRGSGGGRGASDRDAASGPEAPMQPGFPENLSKLKSLLTQLRAEDLNIAPRKATLQPLPPNLPPVTYMHIYETDGFSLGVFLLKSGTSIPLHDHPGMHGMLKVLYGTVRISCMDKLDAGGGQRPRALPPEQQFEPPLQPREREAVRPGVLRSRAEYTEASGPCILTPHRDNLHQIDAVEGPAAFLDILAPPYDPDDGRDCHYYRVLEPVRPKEASSSACDLPREVWLLETPQADDFWCEGEPYPGPKVFP
B2: 2-aminoethanethiol dioxygenase (ADO), full-length human, N-terminally His-tagged and biotinylated (pQE80L-Navi-ADO) [modified: biotin (biotinylated during expression, 0.2 mM biotin added); biotin (biotinylated during … (parent)
chain 1: CFPKVLSDDMKKLK
chain 2: B1 chain 2

In one experiment the parent is B1. Put plainly: SPR. The following applies: with RGS5_(2-15), parent: 1, read off a plot.
In the case of chain 2 MPRDNMASLIQRIARQACLTFRGSGGGRGASDRDAASGPEAPMQPGFPENLSKLKSLLTQLRAEDLNIAPRKATLQPLPPNLPPVTYMHIYETDGFSLGVFLLKSGTSIPLHDHPGMHGMLKVLYGTVRISCMDKLDAGGGQRPRALPPEQQFEPPLQPREREAVRPGVLRSRAEYTEASGPCILTPHRDNLHQIDAVEGPAAFLNILAPPYDPDDGRDCHYYRVLEPVRPKEASSSACDLPREVWLLETPQADDFWCEGEPYPGPKVFP [chain 2 D206N], the ratio to parent (fold difference) is -4. Same read-out and setting: for chain 2 MPRDNMASLIQRIARQACLTFRGSGGGRGASDRDAASGPEAPMQPGFPENLSKLKSLLTQLRAEDLNIAPRKATLQPLPPNLPPVTYMHIYETDGFSLGVFLLKSGTSIPLHDHPGMHGMLKVLYGTVRISCMDKLDAGGGQRPRALPPEQQFEPPLQPREREAVRPGVLRSRAEYTEASGPCILTPHRDNLHQIDAVEGPAAFLDILAPPFDPDDGRDCHYYRVLEPVRPKEASSSACDLPREVWLLETPQADDFWCEGEPYPGPKVFP [chain 2 Y212F] the value was 39. Take chain 2 MPRDNMASLIQRIARQACLTFRGSGGGRGASDRDAASGPEAPMQPGFPENLSKLKSLLTQLRAEDLNIAPRKATLQPLPPNLPPVTYMHIYETDGFSLGVFLLKSGTSIPLHDHPGMHGMLKVLYGTVRISCMDKLDAGGGQRPRALPPEQQFEPPLQPREREAVRPGVLRSRAEYTEASGPCILTPHRDNLHQIDAVEGPAAFLDILAPPADPDDGRDCHYYRVLEPVRPKEASSSACDLPREVWLLETPQADDFWCEGEPYPGPKVFP [chain 2 Y212A]: the ratio to parent (fold difference) turned out to be 110.

Variants of B2 are the subject of a further experiment. Put plainly: SPR. Conditions: with IL32_(2-15), parent: 1, read off a plot.
With chain 2 MPRDNMASLIQRIARQACLTFRGSGGGRGASDRDAASGPEAPMQPGFPENLSKLKSLLTQLRAEDLNIAPRKATLQPLPPNLPPVTYMHIYETDGFSLGVFLLKSGTSIPLHDHPGMHGMLKVLYGTVRISCMDKLDAGGGQRPRALPPEQQFEPPLQPREREAVRPGVLRSRAEYTEASGPCILTPHRDNLHQIDAVEGPAAFLNILAPPYDPDDGRDCHYYRVLEPVRPKEASSSACDLPREVWLLETPQADDFWCEGEPYPGPKVFP [chain 2 D206N], the ratio to parent (fold difference) is -7.

As for chain 2 MPRDNMASLIQRIARQACLTFRGSGGGRGASDRDAASGPEAPMQPGFPENLSKLKSLLTQLRAEDLNIAPRKATLQPLPPNLPPVTYMHIYETDGFSLGVFLLKSGTSIPLHDHPGMHGMLKVLYGTVRISCMDKLDAGGGQRPRALPPEQQFEPPLQPREREAVRPGVLRSRAEYTEASGPCILTPHRDNLHQIDAVEGPAAFLDILAPPADPDDGRDCHYYRVLEPVRPKEASSSACDLPREVWLLETPQADDFWCEGEPYPGPKVFP [chain 2 Y212A], the ratio to parent (fold difference) amounted to 60.

Take chain 2 MPRDNMASLIQRIARQACLTFRGSGGGRGASDRDAASGPEAPMQPGFPENLSKLKSLLTQLRAEDLNIAPRKATLQPLPPNLPPVTYMHIYETDGFSLGVFLLKSGTSIPLHDHPGMHGMLKVLYGTVRISCMDKLDAGGGQRPRALPPEQQFEPPLQPREREAVRPGVLRSRAEYTEASGPCILTPHRDNLHQIDAVEGPAAFLDILAPPFDPDDGRDCHYYRVLEPVRPKEASSSACDLPREVWLLETPQADDFWCEGEPYPGPKVFP [chain 2 Y212F]: the ratio to parent (fold difference) is 19.
